For this data set, the system named is CC(C)(O)[C@@H](O)C(=O)O. Briefly: purified protein. It is filed as biochemical, Synechocystis sp. PCC 6803. The note with it: aerobic.

This note sets out measurements from article PMC8162731.

On to “SnDHAD (Synechocystis sp. PCC 6803 substr. Kazusa)”, for which the Km (as-purified enzyme 0.05 μM, pH 8.0, 50 °C) was found to be 136.3 ± 9.0 µM. Turning to “SnDHAD (Synechocystis sp. PCC 6803 substr. Kazusa; Y477H)”, where the note is “as-purified enzyme”, the Km came to 108.9 ± 10.7 µM.
